According to publication PMC8591604 (Journal of Medicinal Chemistry, 2021):
[ ]: non-standard residue; d: D form. pY = N[C@@H](Cc1ccc(OP(=O)(O)O)cc1)C(=O)O

Molecular target: T1, N-SH2 domain of SHP2 (residues 2–111) (human, UniProt Q06124 2-111)
T1 construct: SHP2 (PTPN11), human, N-terminal SH2 domain, residues 2-111; also called wild-type N-SH2; source: E. coli (DE3) Rosetta2, purified (Ni-NTA)
T1 sequence (looked up): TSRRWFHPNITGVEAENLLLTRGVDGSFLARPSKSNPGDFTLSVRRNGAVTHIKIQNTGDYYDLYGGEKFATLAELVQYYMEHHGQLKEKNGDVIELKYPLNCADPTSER
Experiment: fluorescence polarisation; fluorescence anisotropy, displacement: 1.0 nM CF-P9 with 40 nM N-SH2 titrated with unlabelled peptide; fluorescence buffer
Conditions: both partners purified

binding result: binds
B1: P8, unlabeled IRS-1 pY1172 peptide, residues −2 to +5 (peptide)
peptide: Ac-LN[pY]IDLDL-NH2
SMILES: CC[C@H](C)[C@H](NC(=O)[C@H](Cc1ccc(OP(=O)(O)O)cc1)NC(=O)[C@H](CC(N)=O)NC(=O)[C@H](CC(C)C)NC(C)=O)C(=O)N[C@@H](CC(=O)O)C(=O)N[C@@H](CC(C)C)C(=O)N[C@@H](CC(=O)O)C(=O)N[C@@H](CC(C)C)C(N)=O
notes: IRS-1, residues −2 to +5 around pY1172 (rat numbering; P9 without residue −3); source: synthetic peptide
